Source: patent US20260167721A1 (ABLEXIS, published 2026)

Key:
recombinant CD3 proteins [1] = biological target: T1, recombinant CD3 proteins (UniProt P07766 23-126); experiment: Octet BLI, recombinant CD3; Full R^2 0.9872
T1 construct: elsewhere it uses human CD3 E/D and E/G heterodimers

recombinant CD3 proteins [2] = biological target: T1, recombinant CD3 proteins; experiment: Octet BLI, recombinant CD3; Full R^2 0.974
recombinant CD3 proteins [3] = biological target: T1, recombinant CD3 proteins; experiment: Octet BLI, recombinant CD3; Full R^2 0.603*
recombinant CD3 proteins [4] = biological target: T1, recombinant CD3 proteins; experiment: Octet BLI, recombinant CD3; Full R^2 0.9966
recombinant CD3 proteins [5] = biological target: T1, recombinant CD3 proteins; experiment: Octet BLI, recombinant CD3; Full R^2 0.990
recombinant CD3 proteins [6] = biological target: T1, recombinant CD3 proteins; experiment: Octet BLI, recombinant CD3; Full R^2 0.9991
recombinant CD3 proteins [7] = biological target: T1, recombinant CD3 proteins; experiment: Octet BLI, recombinant CD3; Full R^2 0.9554
recombinant CD3 proteins [8] = biological target: T1, recombinant CD3 proteins; experiment: Octet BLI, recombinant CD3; Full R^2 0.9823
recombinant CD3 proteins [9] = biological target: T1, recombinant CD3 proteins; experiment: Octet BLI, recombinant CD3; Full R^2 0.966

T1 sequence (P07766 23-126): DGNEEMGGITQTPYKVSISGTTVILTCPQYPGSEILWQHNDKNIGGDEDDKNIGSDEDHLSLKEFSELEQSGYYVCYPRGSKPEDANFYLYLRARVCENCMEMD

B1: CD3 × CD33-BspAb93 (bispecific antibody)
chain 1: NFMLTQPHSVSESPGKTVTISCTRSSGSIASKYVQWYQQRPGSSPTTVIYEDNQRPSGVPDRFSGSIDSSSNSASLTISGLKTEDEADYYCQSYYSNNRVFGCGTKLTVLGGGGSGGGGSGGGGSGGGGSEVQLVESGGGLVQPGGSLRLSCAASGFTFSRYSMNWVRQAPGKCLEWVSYISRSSTTIYYADSVKGRFTISRDNAKNSLYLQMNSLRDEDAAVYYCARERWELLYFDYWGQGTLVTVSSDKTHTCPPCPAPEFEGGPSVFLFPPKPKDTLMISRTPEVTCVVVDVSHEDPEVKFNWYVDGVEVHNAKTKPREEQYNSTYRVVSVLTVLHQDWLNGKEYKCKVSNKALPASIEKTISKAKGQPREPQVYTLPPCREEMTKNQVSLWCLVKGFYPSDIAVEWESNGQPENNYKTTPPVLDSDGSFFLYSKLTVDKSRWQQGNVFSCSVMHEALHNHYTQKSLSLSPGK
chain 2: EVQLVQSGAEVKKPGSSVKVSCKASGYTITDSNIHWVRQAPGQSLEWIGYIYPYNGGTDYNQKFKNRATLTVDNPTNTAYMELSSLRSEDTAFYYCVNGNPWLAYWGQGTLVTVSSASTKGPSVFPLAPSSKSTSGGTAALGCLVKDYFPEPVTVSWNSGALTSGVHTFPAVLQSSGLYSLSSVVTVPSSSLGTQTYICNVNHKPSNTKVDKRVEPKSCDKTHTCPPCPAPEFEGGPSVFLFPPKPKDTLMISRTPEVTCVVVDVSHEDPEVKFNWYVDGVEVHNAKTKPREEQYNSTYRVVSVLTVLHQDWLNGKEYKCKVSNKALPASIEKTISKAKGQPREPQVCTLPPSREEMTKNQVSLSCAVKGFYPSDIAVEWESNGQPENNYKTTPPVLDSDGSFFLVSKLTVDKSRWQQGNVFSCSVMHEALHNRFTQKSLSLSPGK
chain 3: DIQLTQSPSTLSASVGDRVTITCRASESLDNYGIRFLTWFQQKPGKAPKLLMYAASNQGSGVPSRFSGSGSGTEFTLTISSLQPDDFATYYCQQTKEVPWSFGQGTKVEVKRTVAAPSVFIFPPSDEQLKSGTASVVCLLNNFYPREAKVQWKVDNALQSGNSQESVTEQDSKDSTYSLSSTLTLSKADYEKHKVYACEVTHQGLSSPVTKSFNRGEC
B1 was tested, and the Kd (recombinant CD3 proteins [1]) was 14.8 nM, the koff (recombinant CD3 proteins [1]) was 0.00516 s⁻¹ and the kon (recombinant CD3 proteins [1]) was 349000 M⁻¹ s⁻¹.

B2: CD3 × CD33-BspAb100 (bispecific antibody)
chain 1: EVQLVESGGGLVKPGGSLRLSCAASGFTFSNYYMNWVRQAPGKCLERVSSISSSSNYIYYADSVKGRFTISRDNAKNSLYLQMNSLRAEDTAVYYCARDRRELPLDYWGQGTVVTVSSGGGGSGGGGSGGGGSGGGGSSYELTQPPSVSVSPGQTARITCSGDALPKKYAYWYQQKSGQAPVLVIYEDSKRPSGIPERFSGSSSGTMATLTISGAQVEDEADYYCYSTDSSGNHWVFGCGTKLTVLDKTHTCPPCPAPEFEGGPSVFLFPPKPKDTLMISRTPEVTCVVVDVSHEDPEVKFNWYVDGVEVHNAKTKPREEQYNSTYRVVSVLTVLHQDWLNGKEYKCKVSNKALPASIEKTISKAKGQPREPQVYTLPPCREEMTKNQVSLWCLVKGFYPSDIAVEWESNGQPENNYKTTPPVLDSDGSFFLYSKLTVDKSRWQQGNVFSCSVMHEALHNHYTQKSLSLSPGK
chain 2: B1 chain 2
chain 3: B1 chain 3
For B2, the Kd (recombinant CD3 proteins [2]) was 235 nM, the koff (recombinant CD3 proteins [2]) was 0.0831 s⁻¹ and the kon (recombinant CD3 proteins [2]) was 354000 M⁻¹ s⁻¹.

B3: CD3 × CD33-BspAb99 (bispecific antibody)
chain 1: not shown
chain 2: B1 chain 2
chain 3: B1 chain 3
Work on B3 yielded a Kd (recombinant CD3 proteins [3]) of 30.7 nM, a koff (recombinant CD3 proteins [3]) of 0.00421 s⁻¹ and a kon (recombinant CD3 proteins [3]) of 137000 M⁻¹ s⁻¹.

B4: CD3 × CD33-BspAb94 (bispecific antibody)
chain 1: NFMLTQPHSVSESPGKTVTISCTRSSGSIASNYVQWYQQRPGSSPTTVIYEDNQRPSGVPDRFSGSIDSSSNSASLTISGLKTEDEADYYCQSYDSSNRVFGCGTKLTVLGGGGSGGGGSGGGGSGGGGSEVQLVESGGGLVKPGGSLRLSCAASGFTFSSYTMNWVRQAPGKCLEWVSSITTSSSYIYYADSVKGRFTISRDNAKNSLYLQMNSLRAEDTAVYYCARVTFDAFDIWGQGTMVTVSSDKTHTCPPCPAPEFEGGPSVFLFPPKPKDTLMISRTPEVTCVVVDVSHEDPEVKFNWYVDGVEVHNAKTKPREEQYNSTYRVVSVLTVLHQDWLNGKEYKCKVSNKALPASIEKTISKAKGQPREPQVYTLPPCREEMTKNQVSLWCLVKGFYPSDIAVEWESNGQPENNYKTTPPVLDSDGSFFLYSKLTVDKSRWQQGNVFSCSVMHEALHNHYTQKSLSLSPGK
chain 2: B1 chain 2
chain 3: B1 chain 3
B4 was tested, and the Kd (recombinant CD3 proteins [4]) was 645 nM, the koff (recombinant CD3 proteins [4]) was 0.0738 s⁻¹ and the kon (recombinant CD3 proteins [4]) was 115000 M⁻¹ s⁻¹.

B5: CD3 × CD33-BspAb115 (bispecific antibody)
chain 1: NFMLTQPHSVSESPGKTVTISCTRTSGSIASNYVQWYQQRPGSSPTTVIYEDNQRPSGVPDRFSGSIDSSSNSASLTISGLKTEDEAAYYCQSYDRSNRVFGCGTKLTVLGGGGSGGGGSGGGGSGGGGSQVQLQESGPGLVKPSETLSLTCTVSGGSISSYYWSWIRQPAGKCLEWIGRIYTSGSTKYNPSLKSRVTMSVDTSKNQFSLKLISVTAADTAVYFCARERIRDLYFDYWGQGTLVTVSSDKTHTCPPCPAPEFEGGPSVFLFPPKPKDTLMISRTPEVTCVVVDVSHEDPEVKFNWYVDGVEVHNAKTKPREEQYNSTYRVVSVLTVLHQDWLNGKEYKCKVSNKALPASIEKTISKAKGQPREPQVYTLPPCREEMTKNQVSLWCLVKGFYPSDIAVEWESNGQPENNYKTTPPVLDSDGSFFLYSKLTVDKSRWQQGNVFSCSVMHEALHNHYTQKSLSLSPGK
chain 2: B1 chain 2
chain 3: B1 chain 3
Binder B5 has a Kd (recombinant CD3 proteins [5]) of 16.2 nM, a koff (recombinant CD3 proteins [5]) of 0.00402 s⁻¹ and a kon (recombinant CD3 proteins [5]) of 249000 M⁻¹ s⁻¹.

B6: CD3 × CD33-BspAb97 (bispecific antibody)
chain 1: SYELTQPPSVSVSPGQTARITCSGDALPKKYAYWYQQKSGQAPVLVIYEDSKRPSGIPERFSGSSSGTMATLTISGAQVEDEADYYCYSTDSSGNHWVFGCGTKLTVLGGGGSGGGGSGGGGSGGGGSEVQLVESGGGLVKPGGSLRLSCAASGFTFSNYYMNWVRQAPGKCLERVSSISSSSNYIYYADSVKGRFTISRDNAKNSLYLQMNSLRAEDTAVYYCARDRRELPLDYWGQGTVVTVSSDKTHTCPPCPAPEFEGGPSVFLFPPKPKDTLMISRTPEVTCVVVDVSHEDPEVKFNWYVDGVEVHNAKTKPREEQYNSTYRVVSVLTVLHQDWLNGKEYKCKVSNKALPASIEKTISKAKGQPREPQVYTLPPCREEMTKNQVSLWCLVKGFYPSDIAVEWESNGQPENNYKTTPPVLDSDGSFFLYSKLTVDKSRWQQGNVFSCSVMHEALHNHYTQKSLSLSPGK
chain 2: B1 chain 2
chain 3: B1 chain 3
B6 was tested, and the Kd (recombinant CD3 proteins [6]) was 276 nM, the koff (recombinant CD3 proteins [6]) was 0.0854 s⁻¹ and the kon (recombinant CD3 proteins [6]) was 309000 M⁻¹ s⁻¹.

B7: CD3 × CD33-BspAb98 (bispecific antibody)
chain 1: NFMLTQPHSVSESPGKTVTISCTRSSGSIASNYVQWYQQRPGSSPTTVIYEDNQRPSGVPDRFSGSIDSSSNSASLTISGLKTEDEADYYCQSYDSSNRVFGCGTKLTVLGGGGSGGGGSGGGGSGGGGSEVHLVESGGGLVKPGGSLRLSCAASGFTFSRYSMNWVRQAPGKCLEWVSSISRSSSYIYYADSVKGRFTISRDNAKNSLYLQMNSLRAEDTAVYYCAREPRTLGMDYWGQGILVTVSSDKTHTCPPCPAPEFEGGPSVFLFPPKPKDTLMISRTPEVTCVVVDVSHEDPEVKFNWYVDGVEVHNAKTKPREEQYNSTYRVVSVLTVLHQDWLNGKEYKCKVSNKALPASIEKTISKAKGQPREPQVYTLPPCREEMTKNQVSLWCLVKGFYPSDIAVEWESNGQPENNYKTTPPVLDSDGSFFLYSKLTVDKSRWQQGNVFSCSVMHEALHNHYTQKSLSLSPGK
chain 2: B1 chain 2
chain 3: B1 chain 3
Binder B7 has a Kd (recombinant CD3 proteins [7]) of 5.1 nM, a koff (recombinant CD3 proteins [7]) of 0.00333 s⁻¹ and a kon (recombinant CD3 proteins [7]) of 653000 M⁻¹ s⁻¹.

B8: CD3 × CD33-BspAb96 (bispecific antibody)
chain 1: SYELTQPPSVSVSPGQTARITCSGDALPKKYAYWYQQKSGQAPVLVIYEDSKRPSGIPERFSGSSSGTMATLTISGAQVEDEADYYCYSTDSSGNHSWVFGCGTKLTVLGGGGSGGGGSGGGGSGGGGSEVQLVESGGGLVKPGGSLRLSCAASGFTFSSYSMNWVRQAPGKCLEWVSSVNSRGSYIYYADSVKGRFTISRDNAKDSLYLQMNSLRADDTAVYYCARDRRELLLDYWGQGTLVTVSSDKTHTCPPCPAPEFEGGPSVFLFPPKPKDTLMISRTPEVTCVVVDVSHEDPEVKFNWYVDGVEVHNAKTKPREEQYNSTYRVVSVLTVLHQDWLNGKEYKCKVSNKALPASIEKTISKAKGQPREPQVYTLPPCREEMTKNQVSLWCLVKGFYPSDIAVEWESNGQPENNYKTTPPVLDSDGSFFLYSKLTVDKSRWQQGNVFSCSVMHEALHNHYTQKSLSLSPGK
chain 2: B1 chain 2
chain 3: B1 chain 3
For B8, the Kd (recombinant CD3 proteins [8]) was 573 nM, the koff (recombinant CD3 proteins [8]) was 0.21 s⁻¹ and the kon (recombinant CD3 proteins [8]) was 366000 M⁻¹ s⁻¹.

B9: CD3 × CD33-BspAb95 (bispecific antibody)
chain 1: NFMLTQPHSVSESPGKTVTISCTRSSGSIASNYVQWYQQRPGSSPTTVIYEDNQRSSGVPDRFSGSIDSSSNSASLTISGLKTEDEADYYCQSYDRSNRVFGCGTKLTVLGGGGSGGGGSGGGGSGGGGSEVQLVESGGGLVKPGGSLRLSCSASGFTFSTYTMNWVRQAPGKCLEWVSSISKSSSYIYYTDSVKGRFTISRDNAKNSLYLQMNSLRAEDTAVYYCARERRTLAFDIWGQGTMVTVSSDKTHTCPPCPAPEFEGGPSVFLFPPKPKDTLMISRTPEVTCVVVDVSHEDPEVKFNWYVDGVEVHNAKTKPREEQYNSTYRVVSVLTVLHQDWLNGKEYKCKVSNKALPASIEKTISKAKGQPREPQVYTLPPCREEMTKNQVSLWCLVKGFYPSDIAVEWESNGQPENNYKTTPPVLDSDGSFFLYSKLTVDKSRWQQGNVFSCSVMHEALHNHYTQKSLSLSPGK
chain 2: B1 chain 2
chain 3: B1 chain 3
With B9 the Kd (recombinant CD3 proteins [9]) was 8.44 nM, the koff (recombinant CD3 proteins [9]) was 0.00457 s⁻¹ and the kon (recombinant CD3 proteins [9]) was 542000 M⁻¹ s⁻¹.
